Here are results for 1 substance from publication PMC2115722.

This assay concerns the target Acanthamoeba actin (Acanthamoeba castellanii). Kind of assay: cross-linking.

Turning to “Acanthamoeba profilin I (natural protein)”, the stoichiometry N (profilin per actin) amounted to 1.
